Reference: article PMC11560701
Where two headings read alike, the source gives them in different places.

How the values were obtained:
[1] = biological target: H2A.Z/H3K9cme3 mono-nucleosome (208-bp 601 Widom DNA) (mouse | Xenopus laevis) (UniProt P0C0S6); assay: AUC
[2] = biological target: H2A.Z/H3K9cme3 mono-nucleosome (208-bp 601 Widom DNA) (mouse | Xenopus laevis) (UniProt P0C0S6); assay: AUC; remark: listed apart in the source

Sequence of human HP1α (heterochromatin protein 1 alpha), full length (P45973 whole entry): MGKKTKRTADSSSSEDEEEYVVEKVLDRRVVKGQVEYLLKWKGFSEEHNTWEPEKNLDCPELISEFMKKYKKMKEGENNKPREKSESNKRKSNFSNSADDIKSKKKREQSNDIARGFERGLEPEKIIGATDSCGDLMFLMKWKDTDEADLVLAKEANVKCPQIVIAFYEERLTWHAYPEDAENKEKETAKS

Q: For “human HP1α (heterochromatin protein 1 alpha), full length (from UniProt P45973 1-191) (natural protein)”, which Kd [1] is on record?
A: 1 µM

Q: And the stoichiometry N (HP1α dimers per nucleosome) [1]?
A: 2

Q: And the Kd [2]?
A: 850 µM
